# Results from patent publication US9791449B2, “Ovarian cancer stem cells and methods of isolation and uses thereof” (THE GENERAL HOSPITAL CORPORATION, priority 2011, dated 2017).
# “Also recorded” adds a separate entry of the source.
# What was measured:
# 3+/Ecad− OVCAR-5 cells = assay: Colony formation assay of FACS-separated cells; type: cell-based, human; details: OVCAR-5 3+/Ecad− cells, 2000 cells in six-well plates; MIS 30 ug/ml or Doxorubicin 30 nM vs media, 14 days
# Protocol: Colony formation was performed as previously described (4; wei 2010). 3+/Ecad− or 3−/Ecad+ cells separated from the ovarian cancer cell lines were treated with MIS or doxorubicin, cisplatin, or taxol, then plated on 6-well plates containing 2 ml/well complete DMEM medium at 500, 1000, or 2000 cells/well, and incubated for 14 days at 37° C., with a media change at day 7. Cells separated from primary ascites were plated on 12-well plates coated by metrigel or by agarose for colony formation assays at 25,000, 50,000, or 100,000 cells/well. Cells were seeded on 1:2 metrigel or in 0.4% agarose over a 0.8% layer, and incubated for 3-4 weeks at 37° C. At day 14 (cell lines) or day 21 (ascites), plates were washed with 1×PBS, and cells fixed with methanol. Resulting colonies were stained with Giemsa and the stained area captured and analyzed using Image J (Rasband, NIH, USA, http://rsb.info.nih.gov/ij/). Large colonies greater than 4 mm at 10× magnification were also counted and compared.
# OVCAR-5 cells = assay: Cell cycle analysis by flow cytometry; type: cell-based, human; details: 100 μg/mL (714 nM) MIS or 60 nM doxorubicin, 48 h
# Protocol: OVCAR-5 was grown to 50-60% confluency in DMEM with 10% FCS, untreated or treated with 100 μg/mL (714 nM) MIS or 60 nM doxorubicin for 48 h, harvested, and incubated with 10 μg/mL Hoechst 33342 at 37° C. for 30 min or 40 μg/mL propidium iodide (Sigma) at 25° C. for 30 min. Cells were stained with anti-human CD24-PE, anti-mouse/human CD44-APC/Cy7, anti-human Epcam-APC, and anti-human Ecadherin-FITC for 20 min at 4° C. and fixed in paraformaldehyde (1%), and the cell cycle was analyzed using the SORP LSRII.
# [1] = tested on: MOVCAR-7 and MOVCAR-8 cell lines; assay: qPCR of CDK inhibitor mRNAs relative to GAPDH; type: cell-based, mouse
# Protocol: Total microRNA (miRNAs) were extracted from the different cell lines HOSE-4, HOSE-6, OVCAR-5, OVCAR-3, OVCAR-8, IGROV-1, and SKOV-3 using the miRNeasy Mini kit (QIAGEN) and reverse-transcribed to cDNAs using the TaqMan MicroRNA Reverse Transcription Kit (Applied Biosystems). Levels of Let-7c miRNAs were measured by quantitative PCR using TagMan Let-7 probes (Applied Biosystems; part no. 4373167) with U47 RNA as internal standard for normalization. Total mRNAs were also extracted from separated and unseparated OVCAR-5, MOVCAR-7, and MOVCAR-8 cell lines using an RNeasy Mini kit (QIAGEN) and reverse-transcribed to cDNAs using the SuperScript III Reverse Transcription Kit (Invitrogen). Levels of Lin28 and cyclin-dependent kinase (CDK) inhibitor mRNAs were measured by quantitative PCR with GAPDH as an internal standard using the following primers: […]
# LIN28 F ([…])(SEQ ID NO: 34) and R ([…])(SEQ ID NO: 35); p15 F ([…])(SEQ ID NO: 36) and R ([…])(SEQ ID NO: 37); p16 F ([…])(SEQ ID NO: 38) and R ([…])(SEQ ID NO: 39); p18 F ([…])(SEQ ID NO: 40) and R ([…])(SEQ ID NO: 41); p19F ([…])(SEQ ID NO: 42) and R ([…])(SEQ ID NO: 43); p21 F ([…])(SEQ ID NO: 44) and R ([…])(SEQ ID NO: 45); p27 F ([…])(SEQ ID NO: 46) and R ([…])(SEQ ID NO: 47); CDK2 F ([…])(SEQ ID NO: 48) and R ([…])(SEQ ID NO: 49); CDK4 F ([…])(SEQ ID NO: 50) and R([…])(SEQ ID NO: 51); CDK6 F ([…])(SEQ ID NO: 52) and R ([…])(SEQ ID NO: 53); and GAPDH F ([…])(SEQ ID NO: 54) and R ([…])(SEQ ID NO: 55). Relative fold changes of Let-7c miRNAs and Lin28 and CDK inhibitor mRNAs were calculated as ΔCt or ΔΔCt (1) (n=3 for each primer).
# [2] = tested on: SMAD1/5/8 in MOVCAR-8 cells; assay: Western blot with phospho-Smad1/5/8 antibody; type: cell-based, mouse; details: MOVCAR-8, 20 ug/ml MIS for 15 min, 2, 4 and 6 h
# Protocol: (§1) FIGS. 5A-5B show MISRII is expressed in ovarian cancer cell lines and SMAD 1/5/8 is phosphorylated after treatment with purified MIS. FIG. 5A show expression of MIS type II receptor in human ovarian cancer cell lines OVCAR-5, IGROV-1 and SKOV-3, and in mouse ovarian cancer cell line MOVCAR-8 were analyzed by immunoprecipitation and cross immunoblotting (IB) of lysates with anti-MISRII (Left) Immunoblotting was also performed to detect MISRII expression in separated 3+, 3−, 3+/Ecad−, 3−Ecad+ of OVCAR-5 xenograft tumors (Right). COS cells transfected with a MISRII vector or a pcDNA empty vector served as positive or negative controls (Right). […] MOVCAR-8 (Left) or OVCAR-5 (Right) cells were treated with 20 ug/ml (Left) or 100 ug/ml (Right) MIS for 15 min, 2, 4 and 6 h, and protein was analyzed by Western blot using a phospho-Smad1/5/8 antibody.
# (§2) Lysates were harvested in lysis buffer (Cell Signaling; catalog no. 9803) for 15 min from 80% subconfluent cells or from ascite cells after lysing red cells. Proteins were fractionated on SDS-polyacrylamide gels and transferred to a membrane. […] Blots were washed (three times) with TBST the following day for 30 min and incubated with the appropriate peroxidase-conjugated second antibodies for 1 h, and bound antibodies were detected with enhanced chemiluminescence (PerkinElmer Life Sciences).
# [3] = tested on: SMAD1/5/8 in OVCAR-5 cells; assay: Western blot with phospho-Smad1/5/8 antibody; type: cell-based, human; details: OVCAR-5, 100 ug/ml MIS for 15 min, 2, 4 and 6 h
# Protocol: as §1, §2
# [4] = tested on: Lin28 in OVCAR-5 cells or primary ascites; assay: Effect of exogenously administered MIS on Lin28 expression; type: cell-based, human; details: separated or unseparated OVCAR-5 cells or primary ascites; data not shown
# [5] = tested on: ovarian cancer cells marked by CD44, CD24, and Epcam (3+); details: cited from earlier work
# 3+/Ecad− population = details: cited from earlier work
# [6] = tested on: epithelial ovarian cancers; details: cited from earlier work
# [7] = in vivo; cited from earlier work
# OVCAR-8 cells = details: cited from earlier work
# [8] = listed as human recombinant MIS
molecule,measurement,setting,value
"MIS: 140 kDa glycoprotein disulfide linked homodimer secreted by fetal testes; produced recombinantly and immunoaffinity purified (protein, listed as Homo sapiens, homodimer) MRDLPLTSLALVLSALGALLGTEALRAEEPAVGTSGLIFREDLDWPPGSPQEPLCLVALGGDSNGSSSPLRVVGALSAYEQAFLGAVQRARWGPRDLATFGVCNTGDRQAALPSLRRLGAWLRDPGGQRLVVLHLEEVTWEPTPSLRFQEPPPGGAGPPELALLVLYPGPGPEVTVTRAGLPGAQSLCPSRDTRYLVLAVDRPAGAWRGSGLALTLQPRGEDSRLSTARLQALLFGDDHRCFTRMTPALLLLPRSEPAPLPAHGQLDTVPFPPPRPSAELEESPPSADPFLETLTRLVRALRVPPARASAPRLALDPDALAGFPQGLVNLSDPAALERLLDGEEPLLLLLRPTAATTGDPAPLHDPTSAPWATALARRVAAELQAAAAELRSLPGLPPATAPLLARLLALCPGGPGGLGDPLRALLLLKALQGLRVEWRGRDPRGPGRAQRSAGATAADGPCALRELSVDLRAERSVLIPETYQANNCQGVCGWPQSDRNPRYGNHVVLLLKMQARGAALARPPCCVPTAYAGKLLISLSEERISAHHVPNMVATECGCR",colony formation of 3+/Ecad− cells,3+/Ecad− OVCAR-5 cells,decreased colony formation; also recorded: decreases significantly; also recorded: significantly inhibited colony growth; also recorded: significant reduction in absolute colony number and cell number; also recorded: significant reduction in absolute colony numbers; also recorded: inhibited colony formation
same,G1 distribution of 3+/Ecad+ population,OVCAR-5 cells,neither MIS nor doxorubicin affected
same,percentage of 3+/Ecad− cells in G1,OVCAR-5 cells,inducing G1 arrest; also recorded: significantly increased; also recorded: G1 accumulation; also recorded: induces G1 cell cycle arrest
same,p15 expression,"[1]; MOVCAR-7 and -8, 50 μg/mL MIS or 60 nM doxorubicin vs vehicle, 4 h",specifically increased; also recorded: significant and opposite responses
same,"other CDK inhibitors mRNA levels (p18, p19, p21, p27)","[1]; MOVCAR-7 or -8, 50 μg/mL MIS or 60 nM doxorubicin, 4 h",did not regulate significantly
same,p16 expression,"[1]; MOVCAR-8, 50 μg/mL MIS vs vehicle, 4 h",specifically increased
same,"kinases tested (CDK2, CDK4, CDK6)","[1]; transgenic cell lines treated with MIS or doxorubicin, data not shown",unaffected
same,SMAD1/5/8 phosphorylation,[2],significantly increased
same,SMAD1/5/8 phosphorylation,[2]; [8],activates SMAD1/5/8 signaling
same,SMAD1/5/8 phosphorylation,[3],significantly increased
same,SMAD1/5/8 phosphorylation,[3]; [8],activates SMAD1/5/8 signaling
same,effect on Lin28 expression,[4],no direct effect
same,inhibition of 3+ enriched population,[5],significantly inhibited
same,response of 3+/Ecad− population,3+/Ecad− population,responded well
same,combination with commonly used cancer drugs to control tumor growth,[6],synergistically or additively
same,growth of epithelial ovarian cancers,[6]; in vitro and in vivo,inhibits their growth
same,toxicity after prolonged therapy,[7],without obvious toxicity
same,P16 protein level,OVCAR-8 cells,upregulated
